Results on one substance are retold here after patent US20160022834A1.

The target in this experiment is rat anti-DNP (IgG^DNP, clone: LO-DNP-2) photocrosslinked with IBA-biotin. The experiment is described as follows: ELISA, anti-Fc HRP secondary on UV exposed IBA-biotin photocrosslinked IgG^DNP (antigen-bound or directly adsorbed), relative to no UV.

“HRP-conjugated IgG Fcγ specific goat anti-rat (antibody)” showed a Fc recognition (percent activity at 2.0 J/cm^2 UV) of 75%.
